From paper PMC2191135

Molecular target: platelet membrane GPIIb-IIIa complex (alpha IIb/beta 3 integrin) (human (endogenous in platelets)) (UniProt P08514)
Test: radioligand binding

B1: arginine, glycine, aspartic acid (RGDS) (peptide)
peptide: RGDS
Work on B1 yielded a % inhibition of fibrinogen binding at 100 uM RGDS of 92%.
